One series has as its system T1, Compound 7.
T1 sequence: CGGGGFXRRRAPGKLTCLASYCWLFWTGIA

On to thrombin, for which, in the series on Compound 7, the “cleavage by 1.4 nM thrombin in PBS at 37 C, HPLC” value is reported as “Approximately 90% of Compound 7 was cleaved after 30 minutes”. Moreover, the “cleavage by 1.4 nM thrombin at 37 C, HPLC” value was “Compound 1 was a better substrate for thrombin than Compounds 4 and 5” in the series on Compound 5; “Compound 1 was a better substrate for thrombin than Compounds 4 and 5” in the series with Compound 4; 30% of Compound 1 was quickly cleaved and released in the series with Compound 1. Besides, the “cleavage rate with 14 nM thrombin, HPLC, against Compound 2” value in the series with Compound 1 is given as “at least 10-fold increase in cleavage rate compared to that of Compound 2”.

The record behind these values is patent US20150184142.
